Data from paper PMC4686814 (Nature communications, 2015).
“And” between values parts separate entries of the source, which are not always exact repeats. Identical values can stand only once.

Legend:
[1] = target: the molecule itself; assay: SEC-SAXS; online SEC (Superose 6 10/300 GL) in 50 mM Tris pH 8.8, 50 mM NaCl; 500 µl at 220 µM injected; BM29 at the ESRF
[2] = target: the molecule itself; assay: SEC; Superose 6; N-terminally His-tagged full length MsVps4 and mutants at 70 µM, a concentration that induces dodecamer formation; no nucleotide
[3] = target: the molecule itself; assay: as above; remark: listed apart in the source
[4] = target: the molecule itself; assay: SEC; Superose 6; MsVps4ΔMIT at 200 µM (Fig. 1b) and at a series of concentrations up to 0.5 mM (Supplementary Fig. 2); no nucleotide
hVPS4B Phe160Ala (human) = hVPS4B Phe160Ala (human) (UniProt O75351)
hVPS4B Met350Ala (human) = hVPS4B Met350Ala (human) (UniProt O75351)
[5] = target: T1, hVPS4B E235Q (catalytic mutant of human VPS4B) (human), O75351; assay: SEC; Superose 6; hVPS4B E235Q and mutants of it at 100 µM with 1 mM ATP and 5 mM MgCl2; settings: remark: other sources report otherwise
T1 chain: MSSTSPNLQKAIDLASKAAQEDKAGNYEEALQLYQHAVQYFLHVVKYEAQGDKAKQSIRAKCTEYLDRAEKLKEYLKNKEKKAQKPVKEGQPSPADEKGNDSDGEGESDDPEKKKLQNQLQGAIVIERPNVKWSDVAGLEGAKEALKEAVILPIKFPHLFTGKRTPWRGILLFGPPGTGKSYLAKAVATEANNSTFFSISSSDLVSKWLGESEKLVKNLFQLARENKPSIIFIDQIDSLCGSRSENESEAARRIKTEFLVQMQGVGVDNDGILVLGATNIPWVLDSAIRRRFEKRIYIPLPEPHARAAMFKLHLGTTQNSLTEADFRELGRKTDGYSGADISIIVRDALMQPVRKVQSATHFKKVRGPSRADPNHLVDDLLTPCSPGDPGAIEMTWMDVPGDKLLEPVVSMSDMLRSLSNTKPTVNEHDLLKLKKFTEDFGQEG

B1: MsVPS4 M318A, full length, His tag cleaved (enzyme, Metallosphera sedula, UniProt A4YHC5 1-369, looked up)
chain: MSAQVMLEEMARKYAIAAVRADKEGRREDAINNYKKAIEVLTQIVTLYPDMVARNAYEQMINEYKKRLETLNQMVPEGGEETEKAEEDIVMKEKPKVTLNEIVGLEDVKEALKEAVVYPSKRPDLFPLGWPRGILLYGPPGCGKTMIAAAVANELDSEFIHVDAASIMSKWLGEAEKNVAKIFKTARELSKKENKPAIIFIDELDALLASYTSEVGGEARVRNQFLKEMDGLADKNEISKVYVIGATNKPWRLDEPFLRRFQKRIYITLPDKAHRLELLKHYSSKVKLDPNVNLEELAELTDGYTASDIRDIVQSAHARVVKEMFEKNLQEPRAINMDDFREVLKVRKPSVNQDMLKAYAAWHEKFKAL
- stoichiometry N [1]: 6

B2: MsVps4 Glu214Tyr, full length, N-terminally His-tagged (enzyme, Metallosphera sedula, UniProt A4YHC5 1-369, looked up)
chain: MSAQVMLEEMARKYAIAAVRADKEGRREDAINNYKKAIEVLTQIVTLYPDMVARNAYEQMINEYKKRLETLNQMVPEGGEETEKAEEDIVMKEKPKVTLNEIVGLEDVKEALKEAVVYPSKRPDLFPLGWPRGILLYGPPGCGKTMIAAAVANELDSEFIHVDAASIMSKWLGEAEKNVAKIFKTARELSKKENKPAIIFIDELDALLASYTSYVGGEARVRNQFLKEMDGLADKNEISKVYVIGATNKPWRLDEPFLRRFQKRIYITLPDKAHRLELLKHYSSKVKLDPNVNLEELAELTDGYTASDIRDIVQSAHMRVVKEMFEKNLQEPRAINMDDFREVLKVRKPSVNQDMLKAYAAWHEKFKAL
- stoichiometry N [2]: 12
- stoichiometry N [3]: 6 and 2

B3: MsVps4 Glu174Ala Glu176Ala, full length, N-terminally His-tagged (enzyme, Metallosphera sedula, UniProt A4YHC5 1-369, looked up)
chain: MSAQVMLEEMARKYAIAAVRADKEGRREDAINNYKKAIEVLTQIVTLYPDMVARNAYEQMINEYKKRLETLNQMVPEGGEETEKAEEDIVMKEKPKVTLNEIVGLEDVKEALKEAVVYPSKRPDLFPLGWPRGILLYGPPGCGKTMIAAAVANELDSEFIHVDAASIMSKWLGAAAKNVAKIFKTARELSKKENKPAIIFIDELDALLASYTSEVGGEARVRNQFLKEMDGLADKNEISKVYVIGATNKPWRLDEPFLRRFQKRIYITLPDKAHRLELLKHYSSKVKLDPNVNLEELAELTDGYTASDIRDIVQSAHMRVVKEMFEKNLQEPRAINMDDFREVLKVRKPSVNQDMLKAYAAWHEKFKAL
- stoichiometry N [2]: 12
- stoichiometry N [3]: 6 and 2

B4: MsVps4 wild type, full length, N-terminally His-tagged (enzyme, Metallosphera sedula, UniProt A4YHC5 1-369, looked up)
chain: MSAQVMLEEMARKYAIAAVRADKEGRREDAINNYKKAIEVLTQIVTLYPDMVARNAYEQMINEYKKRLETLNQMVPEGGEETEKAEEDIVMKEKPKVTLNEIVGLEDVKEALKEAVVYPSKRPDLFPLGWPRGILLYGPPGCGKTMIAAAVANELDSEFIHVDAASIMSKWLGEAEKNVAKIFKTARELSKKENKPAIIFIDELDALLASYTSEVGGEARVRNQFLKEMDGLADKNEISKVYVIGATNKPWRLDEPFLRRFQKRIYITLPDKAHRLELLKHYSSKVKLDPNVNLEELAELTDGYTASDIRDIVQSAHMRVVKEMFEKNLQEPRAINMDDFREVLKVRKPSVNQDMLKAYAAWHEKFKAL
- stoichiometry N [2]: 12
- stoichiometry N [3]: 6 and 2

B5: MsVps4 Arg259Ala Arg260Ala, full length, N-terminally His-tagged (enzyme, Metallosphera sedula, UniProt A4YHC5 1-369, looked up)
chain: MSAQVMLEEMARKYAIAAVRADKEGRREDAINNYKKAIEVLTQIVTLYPDMVARNAYEQMINEYKKRLETLNQMVPEGGEETEKAEEDIVMKEKPKVTLNEIVGLEDVKEALKEAVVYPSKRPDLFPLGWPRGILLYGPPGCGKTMIAAAVANELDSEFIHVDAASIMSKWLGEAEKNVAKIFKTARELSKKENKPAIIFIDELDALLASYTSEVGGEARVRNQFLKEMDGLADKNEISKVYVIGATNKPWRLDEPFLAAFQKRIYITLPDKAHRLELLKHYSSKVKLDPNVNLEELAELTDGYTASDIRDIVQSAHMRVVKEMFEKNLQEPRAINMDDFREVLKVRKPSVNQDMLKAYAAWHEKFKAL
- stoichiometry N [2]: 6
- stoichiometry N [3]: 2

B6: MsVps4 Ser169Ala, full length, N-terminally His-tagged (enzyme, Metallosphera sedula, UniProt A4YHC5 1-369, looked up)
chain: MSAQVMLEEMARKYAIAAVRADKEGRREDAINNYKKAIEVLTQIVTLYPDMVARNAYEQMINEYKKRLETLNQMVPEGGEETEKAEEDIVMKEKPKVTLNEIVGLEDVKEALKEAVVYPSKRPDLFPLGWPRGILLYGPPGCGKTMIAAAVANELDSEFIHVDAASIMAKWLGEAEKNVAKIFKTARELSKKENKPAIIFIDELDALLASYTSEVGGEARVRNQFLKEMDGLADKNEISKVYVIGATNKPWRLDEPFLRRFQKRIYITLPDKAHRLELLKHYSSKVKLDPNVNLEELAELTDGYTASDIRDIVQSAHMRVVKEMFEKNLQEPRAINMDDFREVLKVRKPSVNQDMLKAYAAWHEKFKAL
- stoichiometry N [2]: 12
- stoichiometry N [3]: 6

B7: MsVps4 Ile89Glu, full length, N-terminally His-tagged (enzyme, Metallosphera sedula, UniProt A4YHC5 1-369, looked up)
chain: MSAQVMLEEMARKYAIAAVRADKEGRREDAINNYKKAIEVLTQIVTLYPDMVARNAYEQMINEYKKRLETLNQMVPEGGEETEKAEEDEVMKEKPKVTLNEIVGLEDVKEALKEAVVYPSKRPDLFPLGWPRGILLYGPPGCGKTMIAAAVANELDSEFIHVDAASIMSKWLGEAEKNVAKIFKTARELSKKENKPAIIFIDELDALLASYTSEVGGEARVRNQFLKEMDGLADKNEISKVYVIGATNKPWRLDEPFLRRFQKRIYITLPDKAHRLELLKHYSSKVKLDPNVNLEELAELTDGYTASDIRDIVQSAHMRVVKEMFEKNLQEPRAINMDDFREVLKVRKPSVNQDMLKAYAAWHEKFKAL
- stoichiometry N [2]: 12
- stoichiometry N [3]: 6

B8: MsVps4 Met318Ala, full length, N-terminally His-tagged (enzyme, Metallosphera sedula, UniProt A4YHC5 1-369, looked up)
chain: MSAQVMLEEMARKYAIAAVRADKEGRREDAINNYKKAIEVLTQIVTLYPDMVARNAYEQMINEYKKRLETLNQMVPEGGEETEKAEEDIVMKEKPKVTLNEIVGLEDVKEALKEAVVYPSKRPDLFPLGWPRGILLYGPPGCGKTMIAAAVANELDSEFIHVDAASIMSKWLGEAEKNVAKIFKTARELSKKENKPAIIFIDELDALLASYTSEVGGEARVRNQFLKEMDGLADKNEISKVYVIGATNKPWRLDEPFLRRFQKRIYITLPDKAHRLELLKHYSSKVKLDPNVNLEELAELTDGYTASDIRDIVQSAHARVVKEMFEKNLQEPRAINMDDFREVLKVRKPSVNQDMLKAYAAWHEKFKAL
- stoichiometry N [2]: 6
- stoichiometry N [3]: 2

B9: MsVps4ΔMIT (residues 75 to 369) (domain or fragment, Metallosphera sedula, UniProt A4YHC5 75-369, looked up)
chain: VPEGGEETEKAEEDIVMKEKPKVTLNEIVGLEDVKEALKEAVVYPSKRPDLFPLGWPRGILLYGPPGCGKTMIAAAVANELDSEFIHVDAASIMSKWLGEAEKNVAKIFKTARELSKKENKPAIIFIDELDALLASYTSEVGGEARVRNQFLKEMDGLADKNEISKVYVIGATNKPWRLDEPFLRRFQKRIYITLPDKAHRLELLKHYSSKVKLDPNVNLEELAELTDGYTASDIRDIVQSAHMRVVKEMFEKNLQEPRAINMDDFREVLKVRKPSVNQDMLKAYAAWHEKFKAL
- stoichiometry N [4]: 6

B10: hVPS4B Phe160Ala (enzyme)
chain: MSSTSPNLQKAIDLASKAAQEDKAGNYEEALQLYQHAVQYFLHVVKYEAQGDKAKQSIRAKCTEYLDRAEKLKEYLKNKEKKAQKPVKEGQPSPADEKGNDSDGEGESDDPEKKKLQNQLQGAIVIERPNVKWSDVAGLEGAKEALKEAVILPIKFPHLATGKRTPWRGILLFGPPGTGKSYLAKAVATEANNSTFFSISSSDLVSKWLGESEKLVKNLFQLARENKPSIIFIDEIDSLCGSRSENESEAARRIKTEFLVQMQGVGVDNDGILVLGATNIPWVLDSAIRRRFEKRIYIPLPEPHARAAMFKLHLGTTQNSLTEADFRELGRKTDGYSGADISIIVRDALMQPVRKVQSATHFKKVRGPSRADPNHLVDDLLTPCSPGDPGAIEMTWMDVPGDKLLEPVVSMSDMLRSLSNTKPTVNEHDLLKLKKFTEDFGQEG
- ATPase activity at 37°C with ATP/Mg, percent of wild-type hVPS4B (hVPS4B Phe160Ala (human)): 0%

B11: hVPS4B Met350Ala (enzyme)
chain: MSSTSPNLQKAIDLASKAAQEDKAGNYEEALQLYQHAVQYFLHVVKYEAQGDKAKQSIRAKCTEYLDRAEKLKEYLKNKEKKAQKPVKEGQPSPADEKGNDSDGEGESDDPEKKKLQNQLQGAIVIERPNVKWSDVAGLEGAKEALKEAVILPIKFPHLFTGKRTPWRGILLFGPPGTGKSYLAKAVATEANNSTFFSISSSDLVSKWLGESEKLVKNLFQLARENKPSIIFIDEIDSLCGSRSENESEAARRIKTEFLVQMQGVGVDNDGILVLGATNIPWVLDSAIRRRFEKRIYIPLPEPHARAAMFKLHLGTTQNSLTEADFRELGRKTDGYSGADISIIVRDALAQPVRKVQSATHFKKVRGPSRADPNHLVDDLLTPCSPGDPGAIEMTWMDVPGDKLLEPVVSMSDMLRSLSNTKPTVNEHDLLKLKKFTEDFGQEG
- ATPase activity at 37°C with ATP/Mg, percent of wild-type hVPS4B (hVPS4B Met350Ala (human)): 0%

B12: hVPS4B E235Q (catalytic mutant of human VPS4B), O75351 1-444 (enzyme)
chain: MSSTSPNLQKAIDLASKAAQEDKAGNYEEALQLYQHAVQYFLHVVKYEAQGDKAKQSIRAKCTEYLDRAEKLKEYLKNKEKKAQKPVKEGQPSPADEKGNDSDGEGESDDPEKKKLQNQLQGAIVIERPNVKWSDVAGLEGAKEALKEAVILPIKFPHLFTGKRTPWRGILLFGPPGTGKSYLAKAVATEANNSTFFSISSSDLVSKWLGESEKLVKNLFQLARENKPSIIFIDQIDSLCGSRSENESEAARRIKTEFLVQMQGVGVDNDGILVLGATNIPWVLDSAIRRRFEKRIYIPLPEPHARAAMFKLHLGTTQNSLTEADFRELGRKTDGYSGADISIIVRDALMQPVRKVQSATHFKKVRGPSRADPNHLVDDLLTPCSPGDPGAIEMTWMDVPGDKLLEPVVSMSDMLRSLSNTKPTVNEHDLLKLKKFTEDFGQEG
- stoichiometry N [5]: 6
